These results are taken from the NTF2 design screens of Basanta et al. (2020).

This data set is described as follows: protease stability score; higher = more stable; yeast display proteolysis, trypsin and chymotrypsin.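 Also: relative to predicted unfolded state with 0 unfolded-like and 1 meaning tenfold more protease.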
For “HSLEKDAHEAFELFADTVRTGDEKLMQHLIDPNVRFDYNGVDLHGWKDVSRLMIELRIEDVRLTHVHVIGNKVHLDTRIHSHVNGRRIDTEMHVDIEKVNGRWVIRRIEHR”, the protease stability score amounted to 1.47. In turn, “DEDKHLSDYAMELELHAIKTGDEDLWRELIDPNARLIVGDKTFHGWEHLVTFMVSLGVKHVKLKDLKIQGDKMHSKLEIEFDGRTRTYHVVSLKVDGRWVIESVEVR” registered a protease stability score of 1.06.

Take “DEEKRRASELIIHLWHNFLTGNEDRFRELFDPNVKAKLDVGDKSVDHIGRDHVLDWLRLVRHEIRIHHYEHKRERVYGDKWESDGHVDGEFNGRRTETHFEIILVIIDGKLHFLILNFH”: the protease stability score was -0.076. In turn, “SEDEENAKFVLHELYKADETGDERKQSHMMDPNVRIIVGDKEWVGRDEVVELMHEIRVHRVHIDDFRFQGDKIEVHGTTKGEFNGKRDVYHVHWLILKIDGRWRLQSLEVR” had a protease stability score of 1.11. The same measure for “TDEKRDLDDWLHLLLHAIRTGDFRIEEKLADPNARLEFNGKEFIGMHHILNFLIEWRLHHMDIKHIEKQGDYLHIDSRLDVDFDGQRTILETHLVSLKINGRWILHSMSIG”: 1.28. Take “DHREEESKRYLDDYSRAVTTGDEDRLTELLDPNTKLNYNGQEYHGMEKYKEVLHKILTEIRFESHHVETFRVVGNKLQLDTHIKGHINGKHIRLETHVDIVKINGRWLIDSVRFQ”: the protease stability score came to 0.29. “DKELHIAYHLLKVFEHTLATGDEETSERLLDPDVRFWINGVDFHGWELFSTFMKHARFSFRDSRFHDNRLVNGQINLVGRVRLEIDVDGRRHHTETDVRVVILKVDGRWVIHSMEFK” had a protease stability score of 1.46. The same measure for “TEEEEMYHKFAHEIARNLVTGDEDRLLELADPHVKSNVNGVELHGMEHFLEFWIHIVKEIRVHLRITHVTVINGVVIHDSEYEFIVNGKRHTTRVEIWWVVVDGRVHRVELRFK”: 1.17; for “DEEREFSERAIEMSLEDWLTGDEHRMHRMLDPHVRLDIDGRDIIGRERMTKIIFEINKTLGVDHVEFHDHEIQGDKVHSHLDVHINGRRLRITLHLYKIDGRWQIREVKVV”: 1.13. Take “EEEKKETEHWIETFYRIINTGDEETWSKMADPDMRLEVLIDGKKLELHGRDAFEDFVSKMGFDHVHIHDMEVIGEKAHIHTELRYGDKHIRFEIQLVVVNGRYKSVTIRRK”: the protease stability score worked out at 1.75.

“HDLEKFLDHFFEKLMKELETGDEQSWRRLADPRARLHINGKDFHGREFEHELRNKWGVSRVEEKLDSRDVIGNKLILDGSLSVNGKEIKAILFVQKVDGKWEFKEIEVH”: the protease stability score worked out at 1.34.

With “HEEERLAREYMKRLIHDWVTGDEREHLKLLDPDVRFVQGDKHHHGREEMMRWFQEIRVEDLKHTDEKVYGEKAFVTGHTTWNINGQKIEVKVHYEFVVVNGRVKMIRIDVQ”, the protease stability score was 1.22. The sequence “SEEKEIAERIVRELLYAYHTGDEQLFNHLADPHVRIHIGEFHKVGREHWEELHRWLDNHLRIHRFFFRDVEVQGEKVHIHVRTNTIIGDKRIDTNLLFFILVVNGKIKHMEVREI” had a protease stability score of 1.81. The same measure for “TELDELALKLLEQLIELEATGDWKTLLKLFDPNTRVDIEVGDKKIRLHGREDVIEWVKTVYEHLRFEIRIHSSDAIDGRVHVSTKLIIRIDGRTIEVETHLRVIMIDGKIHEVNTHVH”: 1.43; for “HESTEYADYMLKFLSLVESTGNEDLFKRLFDPDVRLVINGVDTHGWESYHEHRKRVDHKEVEHSEIKHVEVQGEKIIVHGILHVRVKIGDKRFSFEIRFHLIVHKFNGKWHITSIEFH”: 0.848. Turning to “SHDEEWARRFFEDFVRAILTGDEEHLFKNVDPNVRVEIGDKELHGREDFHQHLHEIRIKRFEVHDLTLQGEKVEEDIEMDGQVNGQRFRTRQRVVVDWVNGRFHHLKIEWE”, the protease stability score came out at 0.715. In turn, “SEHEEDLERFAREWIHIFKTGDFKMFNKLADPNVRVHINGKDNHGMEQWKHLKDRHEKELGVDRVDIHVDDVRFIGDKIEMDVTVRQGEFSTRWHVELIVVDGRLKHVSFHVR” registered a protease stability score of 1.16. To “DHDEHDADRAVKWFLEDLRTGDEQLNERQADPHVRNDFNGVEIHGREEFLKHLSKLSNELGIKHLHVRHHRVYDGRLELHIELRFDGKTITLIIIKLKVNGRWYVESMHVH” belongs 0.128; to “SEEEHWVELLIELLERTQKTGDEHSFERLMDPNVRIIIGDKVMHGREEASRWMHEARVHETRIEHIRIINGRAHIDSRERGEINGREINLRVEIISSKVDGRWVITEVRVE”, 0.943; to “DHEEEHARSIIELLLYAFTTGNEKLLRRLIDPDAKVDIDGKSLHGMEDVSRHLREMIDHWRFRHIDVRRLEVQGEWIHITGRWDGDQGDKKVERDVEVRVLVVDGRVKHRSIHFR”, 1.34.

“SEIEETTRQASEFNLHSFRTGDEKMVHELADPHVRTDFNGKRLHGRESLTKELDKLLKDLGVDHVRIEHVNIYNGRVDIIMRVEVGDKEWKITIIAIKIDGKWKLESIEME” gave a protease stability score of 0.132. “SERREFSNFTMQMTITVTLTGDFHTSHRFVDPHARWEQGDKEYHGREIFAKTLLDKSSELGVDHYDIKTIHIQGEKVTVHLRVEVNGVEFELILRAHKINGVWLMESVEVRER” had a protease stability score of 0.971. Sequence “SEDEEELERELRLWLSLVLTGDEDIIRELADPHARSRVNGQKSHGRENLLQLFREHMEIMGAKVVDIEEYHIQGEKIILIMRVHVGDKEYELRIEIHVFNGRLKEVNLHFK” yielded a protease stability score of 1.52. Regarding “SEEDKEREEWLHLLKHSLETGDEQALSRMADPHVRLVVGDKELHGREDYERHWREFLERFPNVTTEVRLRRVEIYGDKIRIDTELRIHVGDKHHSLRVDLIMVKVDGRWFMKEIRIK”, the protease stability score is 1.21. Take “SEEDEEFRHVVERWVRAVTTGNEDELESLLDPNVRLDVGDKRTHGREKWTELFRHLRTQVHHIEITEKHTVGDKVHYRGTLDMTFYVDGVDVRSETETTLVMVKYNGRWQYTHVIIH”: the protease stability score is 1.15. For the sequence “DHEEKKAKELLHLIVELLITGDEDTLSRLLDPNTRWIINGRHLHGMHVFEEWVRRLKEQYKGVTVHIEIEDSKVVGEKARSEIRLIINIGDKVHDIESRLEIVVIDGKMRSLRFEFK”, the protease stability score came to 1.19. “DEEEHRVENMYHRWLHLWETGNEERLTELLDPNTRIVVGDKQIHGREEAHRVLQEFLKRADHIEEFRIHHLRVVGNKVESDTRLRGEIDGRDIDTRVHVHLLVIDGRLREINIQLE” returned a protease stability score of 1.57.

The sequence “DEEKEEEDLVLEILIHMMRTGDEELLDELLDPNARQIVGDKEFIGRELSHWFATFFKNVKVEIKHFRVINGRIHMHVHIQIGDKRHDMRITARKVNGKWVLEESHIR” showed a protease stability score of 1.62.

Consider “EERNKFAEDFSRIDTESHRTGDEHSLLRLFDPHARIHQGDFEMHGWEEFSRIMRHEIERYKNATFEVRVDRVDVQGDKMISDGRLHIHQGDKIREYRIFIIVTKVNGQWHIEEVHIV”, for which the protease stability score amounted to 1.11. The same measure for “SEDERYAEIADRIVRHSQETGDETDHMRMMDPDVRIEIGDKRYHGRELEHKLLKIWGVTRIEYDVRSIEVQGEKVRIDGVINFNGVELKIILYVLKFNGKWSYTKVEIQ”: 1.84; for “SDLEKLAEHTAKEIIHYWLTGDWKSLTELADPHVKLDIDINGRREHHHGWERVIEFFDRFRKRIDHHHIHIDSIDIQGDKVHIDGKLHVHQGDKDLTIKMTIIVIVVDGRIKSLRVIIL”: 2.13. The sequence “SDEERLLKEIYRIWIRLFETGDWKEFEQMFDPNVRLIIGDKDLHGMELYSKFMRHFVEHIRFEDHQEHEIRVIGDKIHVHGREVGNVNGKRHRREIEIRLVVVNGVFKSEELRVH” came in with a protease stability score of 1.18.

Sequence “HEEEEKARYFLEIFFHHLLTGDWHILMELLDPDVRMEYDGKKFHGRESAIEIWRELRVTEIHIRHIHMFNGRVYADTEMRGIVNGVNTNTHSELYVRKYDGRWKVEFVVVH” registered a protease stability score of 2.31.

The sequence “SEEDKMVEDWLREWIELHLTGDFEQWESLFDPNTRSRAHVGDKRFESHGREQVVEVRHEIKREMRITDIDDKHIRVFNGRADLIGFMRGDINGRHVRLEIHVILVIVNGKRKEEEVRIH” had a protease stability score of 0.155. “DTSFTILEEVIKLFIEASETGDERVIQHLFDPNVRFRVDGKDFHGMDWLLEHFSHLRLHDIQITHVHIYNGRVEVTGHVRGNFDGQEKVHNTHILLRKIDGKWRIEHISMK” registered a protease stability score of 1.41. Turning to “SEDDEWLHNFIERLLHTILTGDEHIFSELADPNVRLDIGDKELHGWHLIVRHYIDEFRQFKGVRVHIRIRRFTQIGDKVHYDGELIFVIGDKTIIRELHLVVVKIDGRWKLEHFEIR”, the protease stability score was determined as 2.74. The same measure for “DEDLRMAFEMVRISDHEIDTGDEDSWTKLFDPHVRIRFPGRMLHGREYLHYVLKHARIHYDDSELKDVKFVGNKLLVDVHVRGTFFIDGQNIHTEVKRIHMIEKYNGKWKTTEMEIK”: 0.469; for “SEDEEMVEKAHQIEKESLETGDEKMILDLLDPNVRIRVDGVDFHGWEHAEKLLRELRIERVNLRSFTWQGDFLRLDGELTFDYNGKKIRTKVRIYADKVDGRWFHKSHEVT”: 1.1.

Regarding “DETTKLVEEVTRLLERAWETGDEETIYQLLDPNVKWNINGVDFHGMEHLAREIIHELRRHGFRVRFRLHHIDIQGDKARVESIEHIHIGNKHIHRRTYLFLSKVNGVWSIQEQRVE”, the protease stability score stood at 1.44. To “KEEEEDLKKATEDMMHLLSTGDWDTIYRLADPNTRIEINGREEVGMDLYVDKSMEEFRRLGIDKIHIHLHSVTNVNGKIYIDTRYEFNGVKIRMHIVIEKINGRWLLRTLSVK” belongs 1.52; to “DETFKEQEKLIERLERVERTGDWKEWERLADPNVRMDIDGVEIIGMEMVTEFILREMRHLGVTRIRIEIKEIRVIGDKIRIDGQIQQGNKETRFILIVSKIDGRWRLEESYVH”, 1.06; to “DTDKKHIQNVLRLLSTLEHTGDWEALKELADPNVRVVVNGQEIHGRDMFNKHFEELRINDSRMILRDFEVQGDKIHVEGEVEFDGIIDGREKRFVRHVRIINVKIDGRWVIREIQVR”, 1.62. In turn, “DEEEQQVEEVLRNMLRDFYTGDWKRLMKLADPHVQLDINGQLHHGREEAARFLIEWWEILGFKHSRLRHIDIQGEKLHIHGDKRVNGRTFELELIIIIINGRIRSEEIRVI” showed a protease stability score of 0.691. Regarding “SEEDEEVRHVLELLIHAWRTGDERLLMHLLDPHAKFIVGDKELHGREQISRVWKELRIEDSDVHSIELVNGRLRLDTHLIITIGDKHVDVKTRELIVKIDGRWVLEFLEVR”, the protease stability score worked out at 1.37. Take “EEERERAKDVFELLWDIEKTGDEDTFTKLADPNVRTHVGDKHFHGRELVAKWLVDVLRELRVHDIEIKSETVINGRNIVDGVLDGHINGRTVKMTTEILILVINGRIREIDIRIL”: the protease stability score was found to be 0.825. To “DETEEMAEEVLRRFLEINRTGDWKDLHRLFDPNVRIVVNGQELHGMELYLKHEIKTRRKLGAKVEEVRLKHLDSQGEKIISEVEIIFDINGQEIRLDVRVIMNKIDGKWTIRELRIH” belongs 1.08; to “SEEEDESKLATELLIKLLRTGNEHLSERLMDPNMRIVVNGVELHGREEAQRHMREMITQIKNAKIEIRDERTQGEYIKVNMILHYGDKTIDLRVVLVKVDGRWKITEIVLN”, 1.8.
